Patent publication US6436654B1, “Methods for identifying compounds that modulate HIF-1α” (Pharmacia & Upjohn AB, priority 1998, dated 2002)

Assays:
COS7 cells = test: Subcellular distribution of GFP-HIF-1α chimeras in living cells (fluorescence microscopy, cell counting); assay type: cell-based, simian
[1] = test system: GAL4 responsive reporter plasmid; test: Cotransfection of GAL4-HIF-1α fusion proteins with GAL4 responsive luciferase reporter; assay type: cell-based, simian
Source text: To analyze functional activities of HIF-1α independently of the endogenous DNA binding and dimerization domains and the Arnt partner, we next fused HIF-1α to the heterologous DNA binding domain of GAL4. Functional activity of the fusion protein was monitored in COS7 cells by a cotransfection assay using a reporter gene construct carrying five GAL4 DNA binding elements in front of thymidine kinase promoter and the luciferase gene. Six hours after transfection media was changed, and cells were either left uninduced or exposed to 1% oxygen for 30 h prior to harvest. In the presence of either empty expression vector or a vector expressing the minimal GAL4 DNA binding domain, reporter gene activity was unaltered by reduced oxygen levels. […] The GAL4 DNA binding domain is known to harbor an NLS motif capable of taking fusion proteins to the nucleus (Ma and Ptashne (1987) Cell 51, 113-119). We therefore used antibodies directed against the DNA binding domain of GAL4 to examine in both normoxic and hypoxic cells the intracellular localization of the GAL4-HIF-1α fusion protein by immunofluorescence.
Transcriptional activity of GFP and GAL4 fusion constructs was analyzed in a cotransfection assay where effector plasmids (0.2 μg/30-mm dish) together with a reporter gene (1.5 μg/30-mm dish) were introduced into COS7 or HeLa cells. […]

GST/Ref-1 = GST/Ref-1 (Homo sapiens, UniProt P27695); test: Pull-down of [35S]methionine-labeled GAL4/HIF proteins with GST/Ref-1; assay type: binding; conditions: presence or absence of diamide
Description: The precise mechanism by which Ref-1 activates HIF-1α is not known. […] To further investigate whether Ref-1 could interact with HIF-1α, we tried to trap the interaction by using a crosslinking reagent such as diamide, which oxidizes cysteine sulfhydryls to disulfides. A series of experiments was performed with GST-tagged purified Ref-1. [^35S]methionine-labeled in vitro translated GAL4/HIF 1-826 was incubated with GST/Ref-1 in the presence or absence of diamide.
Next, we tried a series of pull-down experiments with [^35S]methionine-labeled in vitro translated GAL4/HIF […] and GAL4/HIF 531-584. […] An interaction between GAL4/HIF […] and GST/Ref-1 was also detected, and this interaction was enhanced in the presence of diamide. In excellent agreement with this observation the C-TAD contains two cysteine residues. […] Immunoblot analysis verified that the input concentrations of GST/Ref-1 or GST alone were similar.

HIF-1α/Arnt complex = molecular target: T1, HIF-1α/Arnt complex (Homo sapiens, UniProt Q16665); test: pT81/HRE-Luc reporter assay with HIF-1α, Arnt and coactivators (CBP, TIF2, SRC-1); assay type: cell-based
T1 construct: expression plasmid for full-length HIF-1α (pCMV-HIF-1α); expressed in transfected cells
Description: FIG. 8 The transcriptional coactivator TIF2 enhances the HIF-1α-mediated transactivation function and interacts with HIF-1α in vivo. COS7 cells were transiently cotransfected as described in Materials and Methods with 0.5 μg pT81/HRE-Luc reporter construct, hHIF1-α expression vector (pCMV4/HIF-1α, 0.2 μg), Arnt expression vector (pCMV4/Arnt, 0.2 μg) and 0.75-1.5 μg of either TIF2 (pSG5/TIF2) or CBP (Rc/RSV-CBP-HA), as indicated. The total amount of DNA was kept constant by the addition of parental pCMV4 when appropriate. Following transfection cells were incubated either under normoxic (21% O2) or hypoxic conditions (1% O2). Luciferase activities were normalized for transfection efficiency by cotransfection of alkaline phosphatase expressing pRSV-AF. Data are presented as luciferase activity relative to cells transfected with pCMV4 and reporter gene only and incubated at normoxia. Values represent the mean ±S.E. of two independent experiments.
(§1) FIG. 9 The transcriptional coactivator SRC-1 stimulates HIF-1α activity in a hypoxia-dependent manner and interacts in vitro with HIF-1α. (A) COS7 and (B) human embryonic kidney 293 cells were cotransfected with pT81/HRE-Luc (0.5 μg), 0.2 μg of pCMV4/HIF-1α (hHIF1-α), 0.2 μg of pCMV4/Arnt (Arnt), and 0.75-1.5 μg of SRC-1 (pSG5/SRC-1), as indicated. Six h after transfection cells were exposed to either 21 or 1% O2 for 36 h before harvest. Luciferase values are presented as relative luciferase activity as described in the legend to FIG. 1. The results of three independent experiments performed in duplicate ±S.E. are shown. (C) SRC-1 PAS domain is not required for functional interaction with HIF-1α. (Top) Schematic representation of full-length SRC-1 and SRC-1ΔPAS. (Bottom) pGAL4/HIF 71-826 was cotransfected into COS7 cells together with a reporter plasmid expressing the luciferase gene driven by the thymidine kinase minimal promoter under the control of five copies of GAL4-binding sites, and 1.5 μg of either full-length SRC-1 or a deletion mutant of SRC-1, SRC-1ΔPAS, lacking the PAS domain. Cells were exposed to 21 or 1% O2 for 36 h before harvest and reporter gene assays. Luciferase values are presented as relative luciferase activity as described in the legend to FIG. 1. The results of two independent experiments performed in duplicate +S.E. are shown. (D) In vitro interaction between SRC-1 and HIF-1α. COS7 cells were transfected with 10 μg of the expression plasmid pGST-HIF-1α (GST-HIF) or empty GST expression vector (GST). Cells were exposed to either 100 μM CoCl2 or vehicle (H2O) for 24 h. […] The eluted material was analyzed on 5% SDS-PAGE and visualized by fluorography. ⅕×Input represents one-fifth of the amount of [^35S]methionine-labeled SRC-1 used in the binding reactions. […]

[2] = test system: hypoxia responsive reporter gene (HRE-luc); test: Cotransfection of GFP-HIF-1α fusion constructs with hypoxia responsive reporter gene (HRE-luc); assay type: cell-based, simian; conditions: 1% O2 vs normoxia, no CBP
Source text: We next examined the ability of GFP-HIF-1α fusion proteins in functional cotransfection assays where GFP-HIF-1α expression vectors were introduced into COS7 cells together with a hypoxia-responsive gene reporter construct carrying three tandem copies of the erythropoietin hypoxia responsive element (HRE) in front of the Herpes simplex thymidine kinase promoter and the luciferase gene. […] This reporter gene activity was further stimulated about 4-fold by hypoxia (FIG. 6A). In control experiments, transient expression of wild-type HIF-1α also yielded a similar pattern of reporter gene activation, albeit with a slightly lower potency generating about a 2-fold activation response upon exposure to hypoxia. […] In fact, stabilization of the fusion protein (FIG. 2C) by the GFP moiety may rather have enhanced the potency of the activation response produced by HIF-1α.
Transcriptional activity of GFP and GAL4 fusion constructs was analyzed in a cotransfection assay where effector plasmids (0.2 μg/30-mm dish) together with a reporter gene (1.5 μg/30-mm dish) were introduced into COS7 or HeLa cells. The reporter plasmid encoded firefly luciferase gene under the control of thymidine kinase minimal promoter and either five or three copies of GAL4 or HIF-responsive elements, respectively.

GST-HIF-1α = molecular target: T2, GST-HIF-1α (Homo sapiens, UniProt Q16665); test: GST precipitation assay of in vitro translated [35S]labeled SRC-1 with GST-HIF-1α; assay type: binding
T2 construct: expressed in transfected cells; host or cells: COS7 cells, treated with 100 μM CoCl2 or vehicle; whole cell extract used
Description: as §1, with “assays.” for “assays. Luciferase values are presented as relative luciferase activity as described in the legend to FIG. 1. The results of two independent experiments performed in duplicate +S.E. are shown. (D) In vitro interaction between SRC-1 and HIF-1α. COS7 cells were transfected with 10 μg of the expression plasmid pGST-HIF-1α (GST-HIF) or empty GST expression vector (GST). Cells were exposed to either 100 μM CoCl2 or vehicle (H2O) for 24 h.”

T1 sequence (Q16665 whole entry): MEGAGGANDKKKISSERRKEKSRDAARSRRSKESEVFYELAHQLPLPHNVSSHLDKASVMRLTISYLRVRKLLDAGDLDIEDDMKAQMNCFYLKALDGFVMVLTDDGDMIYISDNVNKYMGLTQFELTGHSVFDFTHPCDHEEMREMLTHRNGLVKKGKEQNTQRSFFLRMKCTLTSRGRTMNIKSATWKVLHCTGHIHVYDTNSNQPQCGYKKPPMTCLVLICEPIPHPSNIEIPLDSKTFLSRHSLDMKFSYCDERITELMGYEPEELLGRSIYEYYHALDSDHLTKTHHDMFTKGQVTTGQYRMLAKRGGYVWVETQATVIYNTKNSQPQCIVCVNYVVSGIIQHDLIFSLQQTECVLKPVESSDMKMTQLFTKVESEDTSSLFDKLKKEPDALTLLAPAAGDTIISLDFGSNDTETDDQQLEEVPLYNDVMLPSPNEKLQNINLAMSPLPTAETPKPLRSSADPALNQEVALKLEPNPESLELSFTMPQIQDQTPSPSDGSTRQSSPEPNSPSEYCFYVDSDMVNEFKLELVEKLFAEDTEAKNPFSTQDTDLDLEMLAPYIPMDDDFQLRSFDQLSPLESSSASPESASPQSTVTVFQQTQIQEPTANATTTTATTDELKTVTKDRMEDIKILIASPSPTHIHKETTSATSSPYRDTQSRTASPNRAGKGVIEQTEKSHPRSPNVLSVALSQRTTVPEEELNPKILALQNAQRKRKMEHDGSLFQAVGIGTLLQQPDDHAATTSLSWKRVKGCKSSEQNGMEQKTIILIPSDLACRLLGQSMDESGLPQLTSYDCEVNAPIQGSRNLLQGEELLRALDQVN
T1 sequence (P27540 whole entry partner): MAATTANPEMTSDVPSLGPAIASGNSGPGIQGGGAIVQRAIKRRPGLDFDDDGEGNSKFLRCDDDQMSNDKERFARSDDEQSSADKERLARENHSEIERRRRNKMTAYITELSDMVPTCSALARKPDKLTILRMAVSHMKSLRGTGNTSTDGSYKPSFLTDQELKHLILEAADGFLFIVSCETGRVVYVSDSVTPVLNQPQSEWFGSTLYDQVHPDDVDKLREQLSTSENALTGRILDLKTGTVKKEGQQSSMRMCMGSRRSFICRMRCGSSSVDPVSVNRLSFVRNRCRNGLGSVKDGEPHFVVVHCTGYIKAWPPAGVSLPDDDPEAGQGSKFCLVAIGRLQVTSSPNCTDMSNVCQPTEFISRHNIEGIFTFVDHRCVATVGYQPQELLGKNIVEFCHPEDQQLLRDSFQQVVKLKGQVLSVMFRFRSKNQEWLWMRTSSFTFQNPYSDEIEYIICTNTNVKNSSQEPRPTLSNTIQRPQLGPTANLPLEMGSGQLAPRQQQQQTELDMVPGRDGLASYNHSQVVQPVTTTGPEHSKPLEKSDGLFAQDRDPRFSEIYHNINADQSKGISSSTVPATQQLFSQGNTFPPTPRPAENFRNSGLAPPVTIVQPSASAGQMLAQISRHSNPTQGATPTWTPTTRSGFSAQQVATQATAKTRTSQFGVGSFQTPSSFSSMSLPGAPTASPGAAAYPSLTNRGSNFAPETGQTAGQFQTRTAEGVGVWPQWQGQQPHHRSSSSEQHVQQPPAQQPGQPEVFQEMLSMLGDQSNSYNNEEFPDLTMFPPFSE
T2 sequence (Q16665 whole entry): as the sequence (Q16665 whole entry) above
Chain of GST/Ref-1 (P27695 whole entry, species assumed, the tested form may be a part): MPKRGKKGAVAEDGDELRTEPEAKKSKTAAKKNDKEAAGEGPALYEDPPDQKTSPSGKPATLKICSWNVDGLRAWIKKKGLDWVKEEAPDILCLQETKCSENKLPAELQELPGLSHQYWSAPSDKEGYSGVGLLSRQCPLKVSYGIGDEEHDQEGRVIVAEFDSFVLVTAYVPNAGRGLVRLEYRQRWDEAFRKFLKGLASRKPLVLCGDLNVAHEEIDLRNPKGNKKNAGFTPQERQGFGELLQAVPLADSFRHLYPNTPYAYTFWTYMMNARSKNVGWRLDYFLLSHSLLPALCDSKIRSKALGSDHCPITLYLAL

`[Cl-].[Cl-].[Co+2]` [CoCl2] was tested, and the “effect on nuclear import of GFP-HIF-1α” value (COS7 cells) was “induced nuclear import of GFP-HIF-1α”.
With “GAL4-HIF-1α: full length HIF-1α fused to the GAL4 DNA binding domain” the “hypoxia-dependent activation of GAL4 reporter gene activity” value ([1]; 1% O2 vs normoxia, no exogenous coactivator) was “about 2 fold”, the “stimulation of GAL4 reporter activity by coexpressed CBP” value ([1]; hypoxic conditions, vs hypoxia without exogenous coactivator) was 19 fold and the “binding to GST/Ref-1 (in words)” value (GST/Ref-1) was “weakly bind GST/Ref-1”.
In the case of “HIF-1α: transiently expressed wild-type human hypoxia-inducible factor-1α”, the “increase of reporter gene activity by hypoxia” value (HIF-1α/Arnt complex; coexpression of HIF-1α and Arnt, 1% O2) is reported as roughly 1.5 fold, the “stimulation of pT81/HRE-luc reporter gene activity” value (HIF-1α/Arnt complex; coexpression of HIF-1α and Arnt, normoxic conditions) is reported as “around 10 fold” and the “stimulation of HRE reporter gene activity by hypoxia compared to normoxia” value [2] is reported as “about 2 fold”.
With “SRC-1: p160 family transcriptional coactivator” the “enhancement of transcriptional activity of HIF-1α” value (HIF-1α/Arnt complex; normoxic conditions, COS7) was “around 3 fold”, the “binding to GST-HIF-1α (in words)” value (GST-HIF-1α; extract of cells treated with 100 μM CoCl2) was “specifically retained” and the “binding to GST-HIF-1α (in words)” value (GST-HIF-1α; extract of non-treated cells) was “no significant binding”.
“TIF2: p160 family transcriptional coactivator” was tested, and the “activation of the reporter gene over the levels observed at normoxia” value (HIF-1α/Arnt complex; coexpression with HIF-1α, COS7) was “around 12 fold”.
